Data on one molecule can be found in US20230140200A1, “COMPOSITIONS AND METHODS FOR DETECTING CELLS UNDERGOING FERROPTOSIS USING AN ANTIBODY” (THE TRUSTEES OF COLUMBIA UNIVERSITY IN THE CITY OF NEW YORK, priority 2020, published 2023).

One assay has as its system mouse liver tissues. Put plainly: Staining of normal mouse liver frozen tissue. The method, then:
(§1) FIGS. 12A-12B show 3F3 FMA staining in human Huntington's disease brains and mouse tissues. In FIG. 12A, human HD and control brain tissues were fixed in 4% PFA for 24 h, perfused in 30% sucrose for 24 h, and stained with DAPI (nuclei, blue) and 3F3 FMA (red). The expression level of TfR1 is low. There was no difference between HD and control groups. In FIG. 12B, mouse liver tissues and mouse GBM tissues were fixed and stained with DAPI (nuclei, blue) and 3F3 FMA (red). 3F3 FMA was able to recognize mouse TfR1.

Another assay has as its system A-673 cells. In words: Immunofluorescence in A-673 cells. In kind it is cell-based, human. Particulars: 1 μM RSL3, 4 h.
Assay [1] has as its target T1, transferrin receptor protein 1 (Homo sapiens, UniProt P02786).
T1 construct: endogenous in cells; host or cells: HT-1080
In words: Immunoprecipitation-mass spectrometry antigen identification. Particulars: HT-1080 cell lysate, IP-MS. It counts as binding. The method, then:
HT-1080 cells were seeded in DMEM (Corning 10-013-CM) and 10% Hi-FBS with 1% penicillin and streptomycin (PS) with 1% MEM Non-Essential Amino Acids Solution (100×) (Thermo Fisher Scientific 11140-076) 16 h prior to use. DMSO or 1 μM of RSL3 was added and incubated for 4 h. Following treatment, the medium was aspirated from each dish and cells were washed twice with PBS. Cells were lysed with 70 μl lysis buffer (RIPA buffer from ThermoFisher, cat. 89900, 1 mM EDTA, 1 mM PMSF, 1× Halt™ protease inhibitor cocktail from ThermoFisher, cat. 78430 and 1× Halt™ phosphatase inhibitor cocktail from ThermoFisher, cat. 78426). Unlysed cells and debris were pelleted for 15 min at 16,000×g at 4° C. The samples were incubated with 10 μg of 3F3 FMA overnight at 4° C. with shaking. The next day, Thermo Scientific Pierce Protein AG Magnetic Beads (Thermo Fisher Scientific 88802) were washed with TBS with 0.05% Tween 20 (wash buffer) and then were incubated with sample/antibody mixture for 1 h with mixing. The beads were collected with a magnetic stand and then washed with wash buffer for three times. The beads were used for mass spectrometry.
Trypsin digestion was performed overnight at 37° C. […] CID fragmentation was applied with 35% collision energy and resulting fragments were detected using the rapid scan rate in the ion trap. […]
Raw mass spectrometric data were analyzed using MaxQuant v. […]

A further assay relates to human brain tissues. In words: Staining of post-mortem Huntington's disease and control brain tissues. Particulars: HD and control groups. On the procedure:
as §1

The target in the next assay is T2, mouse TfR1 (Mus musculus, UniProt Q62351).
T2 construct: We evaluated 3F3-FMA staining in mouse glioblastoma (GBM) paraffin-embedded tissue samples; from tissue; host or cells: mouse glioblastoma (murine glioma model, c57/B6 mice), paraffin-embedded brain sections
T2 sequence (Q62351 whole entry): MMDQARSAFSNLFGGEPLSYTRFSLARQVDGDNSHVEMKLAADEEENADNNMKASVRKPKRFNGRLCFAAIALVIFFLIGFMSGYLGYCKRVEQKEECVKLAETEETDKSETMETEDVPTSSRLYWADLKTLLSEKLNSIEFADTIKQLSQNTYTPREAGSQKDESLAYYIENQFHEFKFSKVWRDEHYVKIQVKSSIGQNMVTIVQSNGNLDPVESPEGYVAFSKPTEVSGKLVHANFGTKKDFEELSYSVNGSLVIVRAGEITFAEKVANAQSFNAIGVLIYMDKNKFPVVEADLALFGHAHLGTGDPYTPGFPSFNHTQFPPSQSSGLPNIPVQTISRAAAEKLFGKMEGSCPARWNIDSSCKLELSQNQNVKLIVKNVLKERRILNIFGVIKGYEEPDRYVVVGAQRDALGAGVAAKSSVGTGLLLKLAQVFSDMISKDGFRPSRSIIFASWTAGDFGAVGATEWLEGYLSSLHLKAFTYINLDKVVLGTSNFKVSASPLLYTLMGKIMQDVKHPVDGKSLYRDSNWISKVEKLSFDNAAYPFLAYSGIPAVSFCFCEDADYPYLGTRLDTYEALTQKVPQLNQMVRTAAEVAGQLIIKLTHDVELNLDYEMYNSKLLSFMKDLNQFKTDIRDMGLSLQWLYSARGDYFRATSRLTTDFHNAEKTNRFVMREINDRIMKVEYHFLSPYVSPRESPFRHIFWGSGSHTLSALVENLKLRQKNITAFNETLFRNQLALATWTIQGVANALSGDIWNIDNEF
Put plainly: Staining of mouse glioblastoma paraffin-embedded tissue. To be noted: paraffin-embedded GBM tissue. The method, then: All procedures were performed according to the Columbia University Medical Center Institutional Animal Care and Use Committee. Murine glioma cell lines were created from tumor bearing mice. These tumors were generated by injection of a PDGF-IRES-Cre retrovirus into the subcortical white matter of mice with floxed PTEN and/or p53 (Sonabend et al., 2013). After mice reached end stage, the tumors were dissociated and primary cell cultures were created. These cells harbored the specific mutations of the original tumors, and could be re-injected to form gliomas in c57/B6 mice with high fidelity. Briefly, mice between the ages of 6-8 weeks received 50,000 murine glioma cells through stereotactic injection after being anesthetized with a ketamine/xylazine cocktail (87.5 mg/12.5 mg w/w). After cessation of toe-pinch reflex, the scalp was shaved and cleaned with serial use of betadine and 70% ethanol swabs. An incision was made and the skull was exposed. A burr hole was created, 2 mm anterior, 2 mm lateral and 2 mm deep to the right of the bregma. The cells were injected into the subcortical white matter over a period of 3 minutes (0.333 μL/min). Once the injection ceased, the needle was left in place for 1 minute before being slowly withdrawn. After tumor developed, brains were harvested and fixed in 4% paraformaldehyde and embedded in paraffin. 5 micron sections were made for staining.

T1 sequence (P02786 whole entry): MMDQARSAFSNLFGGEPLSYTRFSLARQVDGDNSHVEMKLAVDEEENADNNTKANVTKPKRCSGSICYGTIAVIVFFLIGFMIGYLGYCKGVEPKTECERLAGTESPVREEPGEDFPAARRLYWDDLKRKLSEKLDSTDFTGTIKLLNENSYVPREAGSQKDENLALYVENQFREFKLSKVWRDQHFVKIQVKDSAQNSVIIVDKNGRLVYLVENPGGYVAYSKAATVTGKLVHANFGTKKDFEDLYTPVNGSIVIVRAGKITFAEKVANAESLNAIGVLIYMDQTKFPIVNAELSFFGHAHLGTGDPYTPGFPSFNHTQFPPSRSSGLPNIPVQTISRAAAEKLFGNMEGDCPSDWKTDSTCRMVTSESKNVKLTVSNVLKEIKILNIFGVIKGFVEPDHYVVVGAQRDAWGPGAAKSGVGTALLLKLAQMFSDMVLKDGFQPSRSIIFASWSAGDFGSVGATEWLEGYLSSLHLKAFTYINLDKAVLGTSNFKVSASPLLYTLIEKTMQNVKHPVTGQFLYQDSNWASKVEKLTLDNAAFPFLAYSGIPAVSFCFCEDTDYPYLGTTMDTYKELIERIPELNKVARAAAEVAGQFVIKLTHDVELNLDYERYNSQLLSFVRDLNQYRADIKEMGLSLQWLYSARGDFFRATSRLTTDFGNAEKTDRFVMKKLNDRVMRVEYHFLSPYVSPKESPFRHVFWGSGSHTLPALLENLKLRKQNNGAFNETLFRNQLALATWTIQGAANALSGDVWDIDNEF

B1: 3F3-FMA: Murine monoclonal IgG1 raised against ferroptotic membrane fractions; antigen is transferrin receptor protein 1 (TfR1) (antibody, V domains shown)
VH: EVLLQQSGTELVRPGALVKLSCKASGFNIQDLYIHWVKQRPEQGLEWIGWIDPETDNTIYDPKFQGKASITADTSSNTAYLQLSSLTSEDTAMYYCSTGLLQWYFDVWGAGTAVTVSS
VL: DIVMTQSPSSLAMSIGQKVTMRCKSSQSLLNSYNQKNCLAWYQQKPGQSPKLLLYFVSTRESGVPDRFIGSGSGTDFTLTISSVQAEDLADYFCQQHYSTPLTFGAGTKLELK
On to B1, for which, in the assay with mouse liver tissues, the “staining signal in normal liver tissue” value is “robust signal”. Also, the “3F3-FMA staining upon ferroptosis induction” value with A-673 cells was “concentrated at the cell boundaries and became brighter”. In assay [1], the “amino acid coverage of TfR1” value is reported as 53% and the “confidence of identification of transferrin receptor protein 1 as target antigen” value is on record as 63%. Further, the “staining signal in brain tissue” value in the assay on human brain tissues is given as “lack of signal”. Also, in the assay with mouse TfR1, the “recognition of TfR1 in tumor samples” value is “able to recognize mouse TfR1 protein”.
